± gives the uncertainty stated by the source.

The chains are these.
B1: REST corepressor 3, residues 87 to 134; numbered along this chain, Q9P2K3 (parent)
chain: DEWTVEDKVLFEQAFSFHGKSFHRIQQMLPDKTIASLVKYYYSWKKTR

The variants in the data set derive from B1. Description: abundance fitness (aPCA) (normalised: wild type 0, dead -1); higher = more abundant; growth selection in yeast, the domain comes from the species named. The settings on record: Homo sapiens.
Regarding DEWTVEDKVLFEQAFSFHGKSFHRIQQMLPDKTIASLQKYYYSWKKTR, the abundance fitness is -0.499 ± 0.17. As for DEWTVEDKVLFEQAFSFHGKSFHRIQQMLPDKTIASLSKYYYSWKKTR, the figure is -0.215 ± 0.077. With DEWTVEDKVLFEQAFSFHGKSFHRIQQMLPDKTIASLIKYYYSWKKTR, the abundance fitness is 0.279 ± 0.084. As for DEWTVEDKVLFEQAFSFHGKSFHRIQQMLPDKTIASLDKYYYSWKKTR, the figure is -0.612 ± 0.25; as for DEWTVEGKVLFEQAFSFHGKSFHRIQQMLPDKTIASLVKYYYSWKKTR, -0.571 ± 0.15; as for DERTVEDKVLFEQAFSFHGKSFHRIQQMLPDKTIASLVKYYYSWKKTR, -1.02 ± 0.32. For the variant DEWTVEDKVLFEQAFSFHGKSFHRIQQMLPDKTIAALVKYYYSWKKTR, the abundance fitness was -0.504 ± 0.2. In the case of DEWTVEDKVLFEQAFSFHGKSFHRIQQMLPDKTIAKLVKYYYSWKKTR, the abundance fitness is -0.627 ± 0.37. Turning to DEWTVEDKVLFEQAFSFHGKSFHRIQQMLPDKTIAVLVKYYYSWKKTR, the abundance fitness is -0.761 ± 0.2. As for DEWTVEDKVLFEQAFSFHGKSFHRIQQMLPDKTIASLVKYYYSWKLTR, the abundance fitness was -0.645 ± 0.13.

On to DEWTVEDKVLFEQAFSFHGKSFHRIQQMLPDKTIFSLVKYYYSWKKTR, for which the abundance fitness is -0.098 ± 0.069. As for DEWTVEDKVLFEQAFSFHGKSFHRIQQMLPDKTIMSLVKYYYSWKKTR, the abundance fitness was -0.203 ± 0.11.

Turning to DEWTVEDKVLFEQAFSFHGKSFHRIQQMLPDKTIASTVKYYYSWKKTR, the abundance fitness is -0.542 ± 0.41. Regarding DEWTVEDKVLFEQAFSFHGKSFHRIQQMLPDKTIASLVKYYYAWKKTR, the abundance fitness is -0.128 ± 0.048. Regarding DEWTVEDKVLFEQAFSFHGKSFHRIQQMLPDKTIASLVKYYYSWKKER, the abundance fitness was -0.493 ± 0.4. As for DEWTVEDKVLFEQAFSFHGKSFHRIQQMLPDKTIASLVKYYYSWKKAR, the figure is -0.672 ± 0.15; as for DEWTVEDKVLFEHAFSFHGKSFHRIQQMLPDKTIASLVKYYYSWKKTR, -0.234 ± 0.4. DEWTVEDKVLFEQAFSFHGKSMHRIQQMLPDKTIASLVKYYYSWKKTR: the abundance fitness is -0.55 ± 0.21. Turning to DEWTVEDKVLFEQAFSFHGKSFHRIQQMLPDKTIASLVKYYYSWVKTR, the abundance fitness was -0.454 ± 0.22. As to DEWTVEDKVLFEQAFSFHGKSFHRIMQMLPDKTIASLVKYYYSWKKTR, the abundance fitness was -0.438 ± 0.2. Take DEWTVEDKVLFEQAFSFHGKSFHRIQQMLPDKTKASLVKYYYSWKKTR: the abundance fitness is -0.67 ± 0.38. With DEWTVEDKVLSEQAFSFHGKSFHRIQQMLPDKTIASLVKYYYSWKKTR, the abundance fitness is -0.736 ± 0.27. On to DEWTVEDKVLFEQAFSFHGKSFHRIQQMLPDKTIASLVKYWYSWKKTR, for which the abundance fitness was -0.574 ± 0.3. In the case of DEWTEEDKVLFEQAFSFHGKSFHRIQQMLPDKTIASLVKYYYSWKKTR, the abundance fitness was determined as 0.388 ± 0.11. As for DEWTSEDKVLFEQAFSFHGKSFHRIQQMLPDKTIASLVKYYYSWKKTR, the abundance fitness was -0.3 ± 0.13. Take DEWTCEDKVLFEQAFSFHGKSFHRIQQMLPDKTIASLVKYYYSWKKTR: the abundance fitness is -0.478 ± 0.37. In the case of DEWTVEDKALFEQAFSFHGKSFHRIQQMLPDKTIASLVKYYYSWKKTR, the abundance fitness is -0.216 ± 0.14. DEWTVEDKNLFEQAFSFHGKSFHRIQQMLPDKTIASLVKYYYSWKKTR: the abundance fitness is 0.166 ± 0.22. Turning to DGWTVEDKVLFEQAFSFHGKSFHRIQQMLPDKTIASLVKYYYSWKKTR, the abundance fitness was determined as 0.037 ± 0.11. As for DEWTVEDKVLFEQAFSFHGKSFHRIQQMLPDKYIASLVKYYYSWKKTR, the figure is -0.708 ± 0.38; as for DEWTVEDKVLFEQAFSFHGKSFHRIQQMLPDNTIASLVKYYYSWKKTR, -0.776 ± 0.093. As for DEWTVEDKVLFEQAFSFHGKSFHRIQQMLFDKTIASLVKYYYSWKKTR, the figure is -0.182 ± 0.22; as for DEWTVEDKVLFEQAFSFHGKSFHRIQQMLSDKTIASLVKYYYSWKKTR, -0.851 ± 0.5. For the variant DEWTVEDKVLFEQAFSFHGKSFHRIQQMLPDKTIASLVKYYYSTKKTR, the abundance fitness is -0.394 ± 0.22. As for DEWTVEDKVLFEQAFSFHGKSFHRIQQMLPDKTIASLVKYYYSFKKTR, the figure is 0.414 ± 0.18. For DEWTVEDKVLFEQAFSFHGKSFQRIQQMLPDKTIASLVKYYYSWKKTR, the abundance fitness is -0.258 ± 0.25. As for DEWTVEDKVLFEQAFSFHGKSFDRIQQMLPDKTIASLVKYYYSWKKTR, the figure is -0.517 ± 0.41; as for DEWTVEDKVTFEQAFSFHGKSFHRIQQMLPDKTIASLVKYYYSWKKTR, -0.723 ± 0.44. Consider DEWTVEDKVKFEQAFSFHGKSFHRIQQMLPDKTIASLVKYYYSWKKTR, for which the abundance fitness came to 0.546 ± 0.15. In the case of DEWTVEDKVLFEQAFSFHGKSFHRIQRMLPDKTIASLVKYYYSWKKTR, the abundance fitness is -0.244 ± 0.13. As for DEWTVEDKVLFEQAFSFHGKSFHRIQGMLPDKTIASLVKYYYSWKKTR, the abundance fitness is -0.673 ± 0.2. With DEWTVEDKVLFEQAFSFHGKSFHRIQCMLPDKTIASLVKYYYSWKKTR, the abundance fitness was -0.752 ± 0.41. For DEWTVEDKVLFVQAFSFHGKSFHRIQQMLPDKTIASLVKYYYSWKKTR, the abundance fitness is -0.801 ± 0.22.

DEWTVEDKVLFEQAFSFHGKSFHRIQQHLPDKTIASLVKYYYSWKKTR: the abundance fitness was -0.364 ± 0.44.

Consider DEWTVEDKVLFEQAFSFHGKSFHRIQQMLPIKTIASLVKYYYSWKKTR, for which the abundance fitness was -0.733 ± 0.43. In the case of DEWPVEDKVLFEQAFSFHGKSFHRIQQMLPDKTIASLVKYYYSWKKTR, the abundance fitness was -0.83 ± 0.48. DEWGVEDKVLFEQAFSFHGKSFHRIQQMLPDKTIASLVKYYYSWKKTR: the abundance fitness is -0.84 ± 0.28. For DEWTVEDKVLFEQAFSFHGASFHRIQQMLPDKTIASLVKYYYSWKKTR, the abundance fitness was -0.343 ± 0.28.

Regarding DEWTVEDKVLFEQAFSFHGESFHRIQQMLPDKTIASLVKYYYSWKKTR, the abundance fitness is -0.353 ± 0.33. For the variant DEWTVEDKVLFEQAFSFHGNSFHRIQQMLPDKTIASLVKYYYSWKKTR, the abundance fitness is -0.306 ± 0.27. In the case of DEWTVEDKVLFEQAFSFHGKSFHSIQQMLPDKTIASLVKYYYSWKKTR, the abundance fitness was -0.465 ± 0.38. As for DEWTVEDKVLFEQAFRFHGKSFHRIQQMLPDKTIASLVKYYYSWKKTR, the figure is -0.014 ± 0.1; as for DEWTVEDKVLFEQAFSFHGKSFHRIQQMLPDKTIASLVKYYGSWKKTR, -0.036 ± 0.052; as for DEWTVEDKVLFEQAFSFHGKSFHRIQQMLPDKTIASLVYYYYSWKKTR, -0.193 ± 0.2.
